# Measurements published in publication PMC5378721, “The Proteasomal ATPases Use a Slow but Highly Processive Strategy to Unfold Proteins” (Frontiers in Molecular Biosciences, 2017).
# B1: PAN (Proteasome Activating Nucleotidase), with T20S (Methanocaldococcus jannaschii DSM 2661) (protein)
# chain: MVFEEFISTELKKEKKAFTEEFKEEKEINDNSNLKNDLLKEELQEKARIAELESRILKLELEKKELERENLQLMKENEILRRELDRMRVPPLIVGTVVDKVGERKVVVKSSTGPSFLVNVSHFVNPDDLAPGKRVCLNQQTLTVVDVLPENKDYRAKAMEVDERPNVRYEDIGGLEKQMQEIREVVELPLKHPELFEKVGIEPPKGILLYGPPGTGKTLLAKAVATETNATFIRVVGSELVKKFIGEGASLVKDIFKLAKEKAPSIIFIDEIDAIAAKRTDALTGGDREVQRTLMQLLAEMDGFDARGDVKIIGATNRPDILDPAILRPGRFDRIIEVPAPDEKGRLEILKIHTRKMNLAEDVNLEEIAKMTEGCVGAELKAICTEAGMNAIRELRDYVTMDDFRKAVEKIMEKKKVKVKEPAHLDVLYR
# notes: homohexamer; with Proteasome subunit alpha (20S proteasome of Thermoplasma acidophilum, T20S); Proteasome subunit beta (20S proteasome of Thermoplasma acidophilum, T20S)
# Tests used:
# [1] = molecular target: T1, PAN (Proteasome Activating Nucleotidase), with T20S (Methanocaldococcus jannaschii, UniProt Q58576); assay: GFPssrA unfolding, loss of fluorescence […], ATPγS:ATP ratio series; format: biochemical; conditions: competing with ATP, 2 mM total nucleotide, 0.2 μM GFPssrA, 400 nM T20S, 20 mM MgCl2, pH 7.5
# T1 construct: homohexamer; with Proteasome subunit alpha (20S proteasome of Thermoplasma acidophilum, T20S); Proteasome subunit beta (20S proteasome of Thermoplasma acidophilum, T20S)
# T1 sequence (P25156 whole entry partner, one chain of several): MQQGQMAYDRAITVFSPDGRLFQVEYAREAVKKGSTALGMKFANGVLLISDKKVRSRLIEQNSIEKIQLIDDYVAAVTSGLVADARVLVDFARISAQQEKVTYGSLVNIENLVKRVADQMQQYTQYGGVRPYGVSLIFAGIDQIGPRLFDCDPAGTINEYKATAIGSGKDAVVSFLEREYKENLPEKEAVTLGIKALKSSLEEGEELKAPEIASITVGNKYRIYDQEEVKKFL
# T1 sequence (P28061 9-211 partner, one chain of several): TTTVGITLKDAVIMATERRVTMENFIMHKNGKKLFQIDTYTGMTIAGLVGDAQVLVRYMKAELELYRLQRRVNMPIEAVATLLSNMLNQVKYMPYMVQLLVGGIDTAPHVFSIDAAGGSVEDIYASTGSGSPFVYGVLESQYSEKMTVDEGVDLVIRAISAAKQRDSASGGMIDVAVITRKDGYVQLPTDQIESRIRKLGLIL
# [2] = molecular target: PAN (Proteasome Activating Nucleotidase) (UniProt Q58576)
# [3] = substrate: Nc1ncnc2c1ncn2[C@@H]1O[C@H](COP(=O)(O)OP(=O)(O)OP(=O)(O)O)[C@@H](O)[C@H]1O; assay: purified protein; format: biochemical, Methanocaldococcus jannaschii; conditions: 0.2 μM GFPssrA, 400 nM T20S, 20 mM MgCl2, pH 7.5, ATP hydrolysis read-out, printed unit doubtful: ATP was varied 0–3 mM, so mM likely meant
molecule,measurement,setting,value
Nc1ncnc2c1ncn2[C@@H]1O[C@H](COP(=O)(O)OP(=O)(O)OP(O)(O)=S)[C@@H](O)[C@H]1O [ATPγS],"GFPssrA unfolding, loss of fluorescence 485/510, ATPγS:ATP ratio series",[1],"as the ATPγS:ATP ratio increased, GFPssrA unfolding rate decreased"
GFPssrA (GFP with an unstructured ssrA tag),"Km for GFPssrA in ATP-dependent unfolding by PAN (steady-state loss of GFP fluorescence, ex/em 485/510; GFPssrA 0 to 10 μM, 50 nM PAN, 400 nM T20S, 2 mM ATP)",[2],0.187 µM
B1,Km,[3],0.000397 ± 1.7e-05 mM
